# Experimental data published in patent publication US20250163140A1.
# Substitutions are numbered along the chain they refer to.
# B1: antibody D105N_G2_YTE (antibody)
# heavy: QVQLVQSGAEVKKPGASVKVSCKASGYTFTNHYMHWVRQAPGQGLEWMGIINPISGSTSNAQKFQGRVTMTRDTSTSTVYMELSSLRSEDTAVYYCARDIVDAFNFWGQGTMVTVSSASTKGPSVFPLAPCSRSTSESTAALGCLVKDYFPEPVTVSWNSGALTSGVHTFPAVLQSSGLYSLSSVVTVPSSNFGTQTYTCNVDHKPSNTKVDKTVERKCCVECPPCPAPPVAGPSVFLFPPKPKDTLYITREPEVTCVVVDVSHEDPEVQFNWYVDGVEVHNAKTKPREEQFNSTFRVVSVLTVVHQDWLNGKEYKCKVSNKGLPAPIEKTISKTKGQPREPQVYTLPPSREEMTKNQVSLTCLVKGFYPSDIAVEWESNGQPENNYKTTPPMLDSDGSFFLYSKLTVDKSRWQQGNVFSCSVMHEALHNHYTQKSLSLSPGK
# light: AIQLTQSPSSLSASVGDRVTITCRASQGISSALVWYQQKPGKAPKLLIYDASSLESGVPSRFSGSGSGTDFTLTISSLQPEDFATYYCQQFNDYFTFGPGTKVDIK
# B2: antibody I100Y_G2_YTE (antibody)
# heavy: B1 heavy with I100Y, N105D
# light: B1 light
# B3: antibody D105N_G2_LS (antibody)
# heavy: B1 heavy with Y248M, T250S, E252T, M424L, N430S
# light: B1 light
# B4: antibody D105N_IgG4PE_R409K_LS (antibody)
# heavy: QVQLVQSGAEVKKPGASVKVSCKASGYTFTNHYMHWVRQAPGQGLEWMGIINPISGSTSNAQKFQGRVTMTRDTSTSTVYMELSSLRSEDTAVYYCARDIVDAFNFWGQGTMVTVSSASTKGPSVFPLAPCSRSTSESTAALGCLVKDYFPEPVTVSWNSGALTSGVHTFPAVLQSSGLYSLSSVVTVPSSSLGTKTYTCNVDHKPSNTKVDKRVESKYGPPCPPCPAPEFEGGPSVFLFPPKPKDTLMISRTPEVTCVVVDVSQEDPEVQFNWYVDGVEVHNAKTKPREEQFNSTYRVVSVLTVLHQDWLNGKEYKCKVSNKGLPSSIEKTISKAKGQPREPQVYTLPPSQEEMTKNQVSLTCLVKGFYPSDIAVEWESNGQPENNYKTTPPVLDSDGSFFLYSKLTVDKSRWQEGNVFSCSVLHEALHSHYTQKSLSLSLGK
# light: B1 light
# B5: antibody I100H_G2_LS (antibody)
# heavy: B1 heavy with I100H, N105D, Y248M, T250S, E252T, M424L, N430S
# light: B1 light
# B6: antibody I100A_IgG4PE_R409K_LS (antibody)
# heavy: B4 heavy with I100A, N105D
# light: B1 light
# B7: antibody I100A_G2_YTE (antibody)
# heavy: B1 heavy with I100A, N105D
# light: B1 light
# B8: antibody I100H_G2_YTE (antibody)
# heavy: B1 heavy with I100H, N105D
# light: B1 light
# B9: antibody I100A_G2_LS (antibody)
# heavy: B1 heavy with I100A, N105D, Y248M, T250S, E252T, M424L, N430S
# light: B1 light
# B10: antibody I100H_IgG4PE_R409K_LS (antibody)
# heavy: B4 heavy with I100H, N105D
# light: B1 light
# B11: antibody I100Y_G2_LS (antibody)
# heavy: B1 heavy with I100Y, N105D, Y248M, T250S, E252T, M424L, N430S
# light: B1 light
# B12: antibody I100Y_IgG4PE_R409K_LS (antibody)
# heavy: B4 heavy with I100Y, N105D
# light: B1 light
# Target: Recombinant Human FGF-23 (R&D Systems, Cat No. 2604-FG-025/CF) (human) (UniProt Q9GZV9)
# Assay: cell-based or functional assay
# Sequence of Recombinant Human FGF-23 (R&D Systems, Cat No. 2604-FG-025/CF) (human) (Q9GZV9 25-251 limits assumed): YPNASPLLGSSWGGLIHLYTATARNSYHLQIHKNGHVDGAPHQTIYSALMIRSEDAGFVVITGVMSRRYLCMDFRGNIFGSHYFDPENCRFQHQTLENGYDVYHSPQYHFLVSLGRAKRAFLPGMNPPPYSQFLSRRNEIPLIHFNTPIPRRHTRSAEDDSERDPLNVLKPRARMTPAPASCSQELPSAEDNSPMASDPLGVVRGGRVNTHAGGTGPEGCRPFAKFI
row,FGF23 neutralizing activity IC50 (luciferase promoter assay) [ng/mL],Binder
1,12.4,B1
2,2.9,B2
3,12.4,B3
4,11.7,B4
5,13,B5
6,6.6,B6
7,5,B7
8,8.9,B8
9,2.4,B9
10,13.1,B10
11,4.4,B11
12,2.9,B12
